Measured values reported in patent US20200199213A1 (Eli Lilly, published 2020).

B1: human ANGPTL3 (other)
chain: SRIDQDNSSFDSLSPEPKSRFAMLDDVKILANGLLQLGHGLKDFVHKTKGQINDIFQKLNIFDQSFYDLSLQTSEIKEEEKELRRTTYKLQVKNEEVKNMSLELNSKLESLLEEKILLQQKVKYLEEQLTNLIQNQPETPEHPEVTSLKTFVEKQDNSIKDLLQTVEDQYKQLNQQHSQIKEIENQLRRTSIQEPTEISLSSKPRAPRTTPFLQLNEIRNVKHDGIPAECTTIYNRGEHTSGMYAIRPSNSQVFHVYCDVISGSPWTLIQHRIDGSQNFNETWENYKYGFGRLDGEFWLGLEKIYSIVKQSNYVLRIELEDWKDNKHYIEYSFYLGNHETNYTLHLVAITGNVPNAIPENKDLVFSTWDHKAKGHFNCPEGYSGGWWWHDECGENNLNGKYNKPRAKSKPERRRGLSWKSQNGRLYSIKSTKMLIHPTDSESFE
B4: human ANGPTL3/8 complex (other)
chain 1: SRIDQDNSSFDSLSPEPKSRFAMLDDVKILANGLLQLGHGLKDFVHKTKGQINDIFQKLNIFDQSFYDLSLQTSEIKEEEKELRRTTYKLQVKNEEVKNMSLELNSKLESLLEEKILLQQKVKYLEEQLTNLIQNQPETPEHPEVTSLKTFVEKQDNSIKDLLQTVEDQYKQLNQQHSQIKEIENQLRRTSIQEPTEISLSSKPRAPRTTPFLQLNEIRNVKHDGIPAECTTIYNRGEHTSGMYAIRPSNSQVFHVYCDVISGSPWTLIQHRIDGSQNFNETWENYKYGFGRLDGEFWLGLEKIYSIVKQSNYVLRIELEDWKDNKHYIEYSFYLGNHETNYTLHLVAITGNVPNAIPENKDLVFSTWDHKAKGHFNCPEGYSGGWWWHDECGENNLNGKYNKPRAKSKPERRRGLSWKSQNGRLYSIKSTKMLIHPTDSESFEAAADYKDDDDK
chain 2: APMGGPELAQHEELTLLFHGTLQLGQALNGVYRTTEGRLTKARNSLGLYGRTIELLGQEVSRGRDAAQELRASLLETQMEEDILQLQAEATAEVLGEVAQAQKVLRDSVQRLEVQLRSAWLGPAYREFEVLKAHADKQSHILWALTGHVQRQRREMVAQQHRLRQIQERLHTAALPA

Assays:
[1] = molecular target: T1, LPL (lipoprotein lipase) on LPL-expressing cells of Example 1; assay: cell-based or functional assay
T1 sequence (P06858 28-475, species assumed, looked up): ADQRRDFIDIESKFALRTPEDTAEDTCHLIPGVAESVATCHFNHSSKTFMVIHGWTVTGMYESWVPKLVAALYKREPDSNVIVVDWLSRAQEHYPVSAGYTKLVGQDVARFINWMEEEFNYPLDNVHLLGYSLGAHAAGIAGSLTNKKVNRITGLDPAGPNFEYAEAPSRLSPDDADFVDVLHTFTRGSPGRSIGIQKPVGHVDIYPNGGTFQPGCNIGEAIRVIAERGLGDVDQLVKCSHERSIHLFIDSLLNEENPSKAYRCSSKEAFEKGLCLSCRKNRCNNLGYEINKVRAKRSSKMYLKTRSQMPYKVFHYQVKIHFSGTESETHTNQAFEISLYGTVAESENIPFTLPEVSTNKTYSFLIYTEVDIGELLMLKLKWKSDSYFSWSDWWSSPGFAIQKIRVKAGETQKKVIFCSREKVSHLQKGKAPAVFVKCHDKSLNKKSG

human ANGPTL8 [2] = molecular target: T2, human ANGPTL8 (human, UniProt Q6UXH0 22-198); assay: single point ELISA
T2 construct: Biotinylated in the ELISA assays; also called hANGPTL8; free ANGPTL8
T2 sequence: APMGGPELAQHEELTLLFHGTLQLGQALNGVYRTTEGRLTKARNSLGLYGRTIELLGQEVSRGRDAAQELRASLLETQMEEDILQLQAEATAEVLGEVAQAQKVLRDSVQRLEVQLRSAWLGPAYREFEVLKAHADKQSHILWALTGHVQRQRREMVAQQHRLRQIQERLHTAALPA
Protocol: (§1) Single Point ELISA (SPE) Assay: Ab binding selectivity to either the ANGPTL3/8 complex, free ANGPTL3 or free ANGPTL8 is initially verified using standard ELISA assays in a single point format. […] IgG secreted into supernatants after expression in CHO cells are then captured to the assay plate. Biotinylated antigen is added at a concentration of 25 nM to allow for Ab/antigen binding. Ab/antigen complexes are detected after adding alkaline phosphatase-conjugated neutravidin and alkaline phosphatase substrate, and subsequent measurement of the optical density at 560 nm. Positive binding is determined by a signal greater than 3 fold over the non-binding background signal.

human ANGPTL3 [3] = molecular target: B1; assay: single point ELISA
Protocol: as §1

mouse ANGPTL3/8 complex = molecular target: T3, mouse ANGPTL3/8 complex (mouse, UniProt Q9R182 17-455; Q8R1L8 16-198, limits assumed); assay: cell-based or functional assay
T3 sequence (looked up) 1: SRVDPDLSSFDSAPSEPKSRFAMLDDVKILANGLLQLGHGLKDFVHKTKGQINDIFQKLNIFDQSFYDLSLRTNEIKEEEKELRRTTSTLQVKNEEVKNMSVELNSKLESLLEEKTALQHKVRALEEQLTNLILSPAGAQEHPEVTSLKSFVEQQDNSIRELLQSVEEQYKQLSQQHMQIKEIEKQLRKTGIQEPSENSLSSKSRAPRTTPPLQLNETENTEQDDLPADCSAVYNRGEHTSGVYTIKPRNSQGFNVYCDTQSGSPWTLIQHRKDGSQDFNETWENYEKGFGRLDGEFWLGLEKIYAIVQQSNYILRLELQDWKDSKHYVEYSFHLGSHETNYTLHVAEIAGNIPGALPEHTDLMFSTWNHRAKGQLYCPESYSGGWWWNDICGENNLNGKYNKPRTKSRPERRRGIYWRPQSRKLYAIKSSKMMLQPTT
T3 sequence (looked up) 2: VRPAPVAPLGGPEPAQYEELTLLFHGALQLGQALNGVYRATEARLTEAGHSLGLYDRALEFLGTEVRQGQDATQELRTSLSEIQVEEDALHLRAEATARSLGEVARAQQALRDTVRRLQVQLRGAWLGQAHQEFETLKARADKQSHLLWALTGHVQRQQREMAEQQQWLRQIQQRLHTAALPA

human ANGPTL3/8 complex [4] = molecular target: B4; assay: cell-based or functional assay
human ANGPTL3/8 complex [5] = molecular target: B4; assay: single point ELISA; IgG captured by anti-human Fc; biotinylated antigen at 25 nM
Protocol: as §1

human ANGPTL8 [6] = molecular target: T2, human ANGPTL8; assay: as above
Protocol: as §1

human ANGPTL3 [7] = molecular target: B1; assay: as above
Protocol: as §1

human LPL = molecular target: T4, human LPL (human, UniProt P06858 28-475); assay: cell-based or functional assay
T4 sequence (looked up): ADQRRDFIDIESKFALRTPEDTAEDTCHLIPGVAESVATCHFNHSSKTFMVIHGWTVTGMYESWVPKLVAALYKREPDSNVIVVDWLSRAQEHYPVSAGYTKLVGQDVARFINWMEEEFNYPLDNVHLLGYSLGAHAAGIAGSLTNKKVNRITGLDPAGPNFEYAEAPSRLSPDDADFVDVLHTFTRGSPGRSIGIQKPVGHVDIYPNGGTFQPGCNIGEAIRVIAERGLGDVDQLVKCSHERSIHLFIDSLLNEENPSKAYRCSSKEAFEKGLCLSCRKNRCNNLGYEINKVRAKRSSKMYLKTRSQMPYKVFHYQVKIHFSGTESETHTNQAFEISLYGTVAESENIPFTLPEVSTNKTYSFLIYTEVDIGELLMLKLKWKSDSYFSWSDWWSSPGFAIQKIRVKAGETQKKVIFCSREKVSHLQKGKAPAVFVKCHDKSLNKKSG

cynomolgus LPL = molecular target: T5, cynomolgus LPL (cynomolgus, UniProt A0A7N9D851 28-475); assay: cell-based or functional assay
T5 sequence: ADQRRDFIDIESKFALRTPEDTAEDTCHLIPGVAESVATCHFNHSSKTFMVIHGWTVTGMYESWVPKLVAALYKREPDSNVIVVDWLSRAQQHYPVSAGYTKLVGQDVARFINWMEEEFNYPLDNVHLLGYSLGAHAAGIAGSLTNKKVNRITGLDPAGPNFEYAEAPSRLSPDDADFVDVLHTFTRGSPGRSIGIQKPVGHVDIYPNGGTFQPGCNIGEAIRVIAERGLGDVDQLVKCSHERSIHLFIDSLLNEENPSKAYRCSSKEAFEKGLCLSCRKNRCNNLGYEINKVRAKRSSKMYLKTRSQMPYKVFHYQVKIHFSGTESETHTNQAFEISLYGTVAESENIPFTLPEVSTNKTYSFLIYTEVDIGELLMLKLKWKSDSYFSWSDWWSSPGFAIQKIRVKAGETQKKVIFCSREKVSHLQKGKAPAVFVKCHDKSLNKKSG

B1
EC50 in the LPL assay (inhibition of LPL) [1]: 21.5 nM

B2: Ab with LC variant having a D33T mutation (SEQ ID NO:23) and a HC of SEQ ID NO:6 (antibody, human IgG4 S228P, kappa, F234A L235A, V domains shown)
VH: QVTLKESGPTLVKPTQTLTLTCTFSGFSLSISGVGVGWIRQPPGKALEWLALIYRNDDKRYSPSLKSRLTITKDTSKNQVVLTLTNMDPVDTATYYCARTYSSGWYGNWFDPWGQGTLVTVSS
VL: DIVMTQTPLSLPVTPGEPASISCRSSQSLLDSTDGNTYLDWYLQKPGQSPQLLIYMLSYRASGVPDRFSGSGSGTDFTLKISRVEAEDVGIYYCMQRIEFPLTFGGGTKVEIKR
notes: also called D33T Ab
binding result (human ANGPTL8 [2]): no binding | binding result (human ANGPTL3 [3]): no binding | % Max Derepression LPL (mouse ANGPTL3/8 complex): 114% | Ab EC50 (nM), derepression of LPL (mouse ANGPTL3/8 complex): 4.55 nM | % Max Derepression LPL (human ANGPTL3/8 complex [4]): 105% | Ab EC50 (nM), derepression of LPL (human ANGPTL3/8 complex [4]): 1.56 nM | OD at 560 nm (human ANGPTL3/8 complex [5]): 0.661 OD 560 nm | OD at 560 nm (human ANGPTL8 [6]): 0.07 OD 560 nm | OD at 560 nm (human ANGPTL3 [7]): 0.06 OD 560 nm

B3: Ab with LC variant having a M56T mutation (SEQ ID NO:24) and a HC of SEQ ID NO:6 (antibody, human IgG4 S228P, kappa, F234A L235A, V domains shown)
VH: QVTLKESGPTLVKPTQTLTLTCTFSGFSLSISGVGVGWIRQPPGKALEWLALIYRNDDKRYSPSLKSRLTITKDTSKNQVVLTLTNMDPVDTATYYCARTYSSGWYGNWFDPWGQGTLVTVSS
VL: DIVMTQTPLSLPVTPGEPASISCRSSQSLLDSDDGNTYLDWYLQKPGQSPQLLIYTLSYRASGVPDRFSGSGSGTDFTLKISRVEAEDVGIYYCMQRIEFPLTFGGGTKVEIKR
binding result (human ANGPTL8 [2]): no binding | binding result (human ANGPTL3 [3]): no binding | OD at 560 nm (human ANGPTL3/8 complex [5]): 0.775 OD 560 nm | OD at 560 nm (human ANGPTL8 [6]): 0.085 OD 560 nm | OD at 560 nm (human ANGPTL3 [7]): 0.06 OD 560 nm

B4
EC50 in the LPL assay (inhibition of LPL) [1]: 0.54 nM | IC80 concentration (inhibition of LPL activity) (human LPL): 0.42 nM

B5: cynomolgus ANGPTL3/8 complex (other)
chain 1: SRIDQDNSSFDSVSPEPKSRFAMLDDVKILANGLLQLGHGLKDFVHKTKGQINDIFQKLNIFDQSFYDLSLQTSEIKEEEKELRRTTYKLQVKNEEVKNMSLELNSKLESLLEEKILLQQKVKYLEEQLTNLIQNQPATPEHPEVTSLKSFVEKQDNSIKDLLQTVEEQYKQLNQQHSQIKEIENQLRMTNIQEPTEISLSSKPRAPRTTPFLQLNEIRNVKHDGIPADCTTIYNRGEHISGTYAIRPSNSQVFHVYCDVVSGSPWTLIQHRIDGSQNFNETWENYKYGFGRLDGEFWLGLEKIYSIVKQSNYVLRIELEDWKDNKHYIEYSFYLGNHETNYTLHVVKITGNVPNAIPENKDLVFSTWDHKAKGHFSCPESYSGGWWWHDECGENNLNGKYNKPRTKSKPERRRGLSWKSQNGRLYSIKSTKMLIHPTDSESFE
chain 2: APVSSPELAEHEELTLLFHGTLQLGQALNGVYKTTEGRLTKARNSLGLYGRTVELLGQEVSRGRDAAQELRASLLETQMEEDILQLKAEAIAEVLEEVAQAQKVLQDSVRQLEVQLRSAWLGPAYQEFEVLKAHADKQSHILWALTGHVQRQRREMVAQQHRLRQIQERIHKAALPA
IC80 concentration (inhibition of LPL activity) (cynomolgus LPL): 0.38 nM
